Usually IC50 stands for the concentration needed to halve the response being measured.

This is an account of results in patent US6413943.

One assay addresses CDK4/cyclin D1 complex (UniProt P11802). In words: cell-based or functional assay.
The target in the next assay is CDC2/cyclin B (UniProt P06493). Description: in vitro kinase assay; mixture of p27 and p16.
For a further assay, the target named is CDK2/cyclin E (UniProt P24941). Description: in vitro kinase assay; mixture of p27 and p16.
The target of the next assay is CDC2/cyclin B complex (UniProt P06493). Description: cell-based or functional assay.
A further assay has as its target CDK2/cyclin A complex (UniProt P24941). In words: cell-based or functional assay.
The next assay has as its target CDK2/cyclin E complex (UniProt P24941). Description: cell-based or functional assay.

CDK4/cyclin D1 complex, sequence (P11802 whole entry, chain 1 of 2): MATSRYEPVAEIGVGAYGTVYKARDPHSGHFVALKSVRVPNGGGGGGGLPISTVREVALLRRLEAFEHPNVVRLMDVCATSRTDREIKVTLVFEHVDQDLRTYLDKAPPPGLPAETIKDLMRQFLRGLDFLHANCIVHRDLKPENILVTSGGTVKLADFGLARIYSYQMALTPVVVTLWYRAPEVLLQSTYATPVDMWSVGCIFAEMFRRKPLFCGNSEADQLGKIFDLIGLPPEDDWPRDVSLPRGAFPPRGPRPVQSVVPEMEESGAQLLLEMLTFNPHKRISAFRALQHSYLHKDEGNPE
CDK4/cyclin D1 complex, sequence (P24385 whole entry, chain 2 of 2, further chain): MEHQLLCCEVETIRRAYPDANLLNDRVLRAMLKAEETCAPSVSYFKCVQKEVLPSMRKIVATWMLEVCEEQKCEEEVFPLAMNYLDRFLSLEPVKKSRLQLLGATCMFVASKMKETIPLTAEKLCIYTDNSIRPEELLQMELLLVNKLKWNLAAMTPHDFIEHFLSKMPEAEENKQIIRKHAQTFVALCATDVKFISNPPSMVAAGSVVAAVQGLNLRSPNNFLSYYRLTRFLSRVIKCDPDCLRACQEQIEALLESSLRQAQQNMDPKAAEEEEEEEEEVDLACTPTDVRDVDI
CDC2/cyclin B, sequence (P06493 whole entry): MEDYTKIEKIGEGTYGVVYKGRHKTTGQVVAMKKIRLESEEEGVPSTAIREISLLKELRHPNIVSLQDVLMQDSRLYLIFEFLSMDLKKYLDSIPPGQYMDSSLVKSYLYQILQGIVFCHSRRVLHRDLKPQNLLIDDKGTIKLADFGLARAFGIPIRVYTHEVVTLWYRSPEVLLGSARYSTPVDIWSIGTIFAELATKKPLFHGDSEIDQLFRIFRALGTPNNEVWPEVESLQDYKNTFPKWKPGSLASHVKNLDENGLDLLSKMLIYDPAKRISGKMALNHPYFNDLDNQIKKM
CDC2/cyclin B complex, sequence (P06493 whole entry, one chain of several): as the sequence (P06493 whole entry) above

human p27 (from UniProt P46527 1-198) had an IC50, in vitro kinase activity (GST-Rb phosphorylation) with CDK4/cyclin D1 complex of 63 nM.
p27 + p16: the results for the IC50 with CDC2/cyclin B and in the assay with CDK2/cyclin E were 12 nM and 1.7 nM, respectively.
In the assay with CDC2/cyclin B complex, p27-p16 fusion protein returned an IC50, in vitro kinase activity (histone H1 phosphorylation) of 15 nM. In addition, in the assay with CDK2/cyclin A complex, the IC50, in vitro kinase activity was 25 nM. The IC50, in vitro kinase activity (GST-Rb phosphorylation) in the assay with CDK2/cyclin E complex came to 30 nM; with CDK4/cyclin D1 complex it was 25 nM.
